Test results as given in PMC7864571.

Molecular target: T1, NXF1(RRM-LRR) (UniProt Q9UBU9 96-362)
T1 sequence: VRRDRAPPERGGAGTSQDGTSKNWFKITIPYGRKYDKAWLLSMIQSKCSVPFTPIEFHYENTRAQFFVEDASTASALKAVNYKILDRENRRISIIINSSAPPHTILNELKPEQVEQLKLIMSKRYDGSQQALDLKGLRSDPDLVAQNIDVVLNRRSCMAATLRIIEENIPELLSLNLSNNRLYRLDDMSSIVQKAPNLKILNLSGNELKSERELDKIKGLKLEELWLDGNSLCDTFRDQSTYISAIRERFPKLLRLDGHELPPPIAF
Test: EMSA; in presence of GST-Nsp1(1-129); RNA binding of NXF1 not impaired; 10 mM Tris pH 8.0, 100 mM NaCl, 0.5 mM TCEP, 8% glycerol, 0.5 U/ul SUPERase-In, room temperature 10 min; 5% native PAGE; 100 nM RNA
Settings: protein: recombinant; tags: GST tag removed by TEV; label: 5' Alexa Fluor 488; single strand

B1: poly(U) 15-mer RNA (ssRNA)
RNA: UUUUUUUUUUUUUUU
B1: binds.
